# Results reported in patent US11692007B2, “Amino deprotection using 3-(diethylamino)propylamine” (priority 2021, dated 2023).
# Where two headings read alike, the source gives them in different places. Marks after values point to notes of the source that are not given here. Non-standard residues stand in square brackets, D forms with d. Residues, ends and D or L forms follow the SMILES beside them. *: point of attachment. dPhe(4-NHCONH2) = NC(=O)Nc1ccc(C[C@@H](N)C(=O)O)cc1; Dihydroorotyl(S) = O=C1C[C@@H](C(=O)*)NC(=O)N1; dPhe(4-Cl) = N[C@H](Cc1ccc(Cl)cc1)C(=O)O; Phe(4-NH2) = Nc1ccc(C[C@H](N)C(=O)O)cc1; d2Nal = N[C@H](Cc1ccc2ccccc2c1)C(=O)O; Lys(iPr) = CC(C)NCCCC[C@H](N)C(=O)O; d3Pal = N[C@H](Cc1cccnc1)C(=O)O
# Experiments:
# [1] = tested on: rat; details: in vivo; cited from earlier work
# [2] = for Hydantoin impurity (VI) at RRT 1.03 / purity (HPLC) / specified impurity RRT 0.85 (X, unknown): RT; for Hydantoin impurity (VI) at RRT 1.03: at both t0 and t3 (24 h); for specified impurity RRT 0.85 (X, unknown): not present at t0
# Description: Degarelix was kept in a solution of 10% DEAPA in DMF for 24 h to simulate conditions corresponding to those used for removal of Fmoc group during full SPPS. Samples were analyzed by HPLC at four checkpoints up to 24 h and the four HPLC profiles obtained were compared as shown in FIG. 3 and FIG. 4 (for detailed experimental procedure, see Example 7).
# Example 7: HPLC analyses were performed on Agilent 1260 Infinity II system, using columns Waters Cortecs C18 2.7 μm, 4.6×150 mm; temperature: 30° C.; injection volume: 10 μL, UV: 245 nm; pH 5.5 Phosphate Buffer: 25 mM Potassium Phosphate to pH 5.5; pH 3.5 Phosphate Buffer: 25 mM Potassium Phosphate to pH 3.5; mobile phases: 75% pH 5.5 Buffer: 25% CH3CN (A); 65% pH 3.5 Buffer: 35% CH3CN (B); flow: 1.0 mL/min, sample concentration 0.5 mg/ml; gradient: 0-5 min 0% B, 5-45 min […], 45-46 min 100-0% B, 46-60 min 0% B.
# The stability at RT was followed for 24 h at four check points, i.e. t0, 1 h (t1), 4 h (t2) and 24 h (t3).
# Superimposed HPLC profiles are shown in FIG. 3 (Test 1) and FIG. 4 (Test 2).
# [3] = Description: A sample of Degarelix, as a lyophilized powder of about 99% of purity, was dissolved at a concentration of 17 g/L in DMF with 10% of piperidine, TMG, TBA or DEAPA. The stability at RT was measured by HPLC at t=0 (t0), t=8 hr (t1), and t=24 hr (t3) using an Agilent 1260 Infinity II system, using a column Waters Xterra Shield RP18, 3.5 μm, 4.6×150 mm; temperature: 25° C.; sample concentration 0.5 mg/mL; injection volume: 10 μL; flow: 0.7 mL/min; buffer: 65% 40 mM ammonium acetate, pH 10:35% ACN; elution: isocratic, 0-30 min 100% buffer; detection: UV 245 nm.
# [4] = tested on: mice; details: acute oral toxicity; cited from earlier work
# [5] = tested on: rats; details: acute oral toxicity; cited from earlier work
# [6] = tested on: rabbits; details: acute oral toxicity; cited from earlier work
# [7] = Stress stability test of resin-bound H-Ala-Lys-Asp-Gly-Tyr-Ile-OH with piperidine, DEAPA, TMG and TBA in DMF or NBP (aspartimide formation, HPLC); assay type: physicochemical
# Description: A stress test was then performed whereby the model peptide was submitted to basic conditions to simulate repeated alpha-amino deprotection cycles. Resin-bound H-Ala-Lys-Asp-Gly-Tyr-Ile-OH (still bearing side-chain protections) was treated in parallel with 20% piperidine, 10% DEAPA, 5% TMG or 20% TBA solutions, in DMF or NBP, for 4 h at RT.
# As shown in Scheme 2 above, the formation of the aspartimide side-product may be followed by nucleophilic attack onto the aspartimide ring with formation of further by-products, like amine-adducts (amine-mediated ring-opening) and alpha- and beta-peptides (water-mediated ring-opening).
# The hexapeptide samples obtained after such treatments with the Fmoc cleavage solutions were analyzed by HPLC and the results are shown in Table 1 (for detailed experimental procedure, see Example 6).
# In Table 1, Δ Asp indicates the amount of additional overall aspartimide impurities (comprising piperidides by-products) resulting from the stress test relative to the initial aspartimide amount (2.6%).
# Examples 1-6: HPLC-MS analyses were performed on Agilent 1260 Infinity II system coupled to an electrospray ionization mass spectrometer (positive-ion mode, m/z=100-1500, fragmentor 30 V), using columns Agilent Zorbax-SB-C18 5 μm, 250×4.6 mm or Phenomenex Luna C18 5 μm, 250×4.6 mm; temperature: 25° C.; injection volume: 10 μL, UV: 220 nm, mobile phases: H2O+0.08% TFA (A) and CH3CN+0.08% TFA (B), flow: 0.5 mL/min or 1.0 mL/min.
# 100 mg of dry resin H-Ala-Lys-Asp-Gly-Tyr-Ile-Trt-PS (prepared as described in Example 2) were swelled in 2 mL of DMF or NBP for 30 minutes. The resin was filtered and a 2 mL solution of 10% DEAPA (or 20% piperidine, 5% TMG, 20% TBA) in DMF or NBP was added to the resin and stirred for 4 hours at RT. The resin was filtered, washed with DMF or NBP (3×2 mL) and with DCM (3×2 mL). Dry peptide resin was suspended in 3 mL of the mixture TFA/TIS/H2O (90/5/5 v/v/v) and stirred for 2 h. The resin was filtered off and diisopropylether (10 mL) cooled to 4° C. was added to the solution. The peptide was filtered and dried in vacuo to obtain crude H-Ala-Lys-Asp-Gly-Tyr-Ile-OH (II) and aspartimide impurity (III) in different ratios according to the used conditions.
# Table 1 in the description lists the results. ΔAsp indicates the difference between the aspartimide amount formed after stress tests (including piperidides if present) and that arising from the hexapeptide synthesis (2.6%, see Example 2).
# HPLC-MS analysis gradient: 0-30 min 10-40% B; flow: 0.5 mL/min.
# [8] = Test 1, about 170 g/L in DMF with 10% DEAPA, t3 (24 h)
# [9] = Test 2, about 17 g/L in DMF with 10% DEAPA, t3 (24 h)
# [10] = 24 hr at RT, 10% DEAPA in DMF, 17 g/L
# [11] = 24 hr at RT, 10% TBA in DMF, 17 g/L
# [12] = 24 hr at RT, 10% TMG in DMF, 17 g/L
# [13] = 24 hr at RT, 10% piperidine in DMF, 17 g/L
# [14] = duration 0, base solution none, 17 g/L in DMF
# [15] = 10% DEAPA in DMF, 4 h at RT, resin-bound
# [16] = 10% DEAPA in NBP, 4 h at RT, resin-bound
# [17] = 20% TBA in DMF, 4 h at RT, resin-bound
# [18] = 20% TBA in NBP, 4 h at RT, resin-bound
# [19] = 20% piperidine in DMF, 4 h at RT, resin-bound
# [20] = 20% piperidine in NBP, 4 h at RT, resin-bound
# [21] = starting point, after synthesis in DMF with 20% pip, before stress test
compound,measurement,setting,value
"CCN(CC)CCCN [DEAPA, 3-(diethylamino)propylamine]",LD50,[1],830 mg/kg
"CC(=O)N[C@H](Cc1ccc2ccccc2c1)C(=O)N[C@H](Cc1ccc(Cl)cc1)C(=O)N[C@H](Cc1cccnc1)C(=O)N[C@@H](CO)C(=O)N[C@@H](Cc1ccc(NC(=O)[C@@H]2CC(=O)NC(=O)N2)cc1)C(=O)N[C@H](Cc1ccc(NC(N)=O)cc1)C(=O)N[C@@H](CC(C)C)C(=O)N[C@@H](CCCCNC(C)C)C(=O)N1CCC[C@H]1C(=O)N[C@H](C)C(N)=O [Degarelix, Ac-D-Nal-D-Cpa-D-Pal-Ser-Aph(Hor)-D-Aph(Cbm)-Leu-Lys(iPr)-Pro-D-Ala-NH2] (Ac-[d2Nal][dPhe(4-Cl)][d3Pal]S[Phe(4-NH2)](Dihydroorotyl(S))[dPhe(4-NHCONH2)]L[Lys(iPr)]P[dA]-NH2)",degradation of degarelix,"[2]; 10% DEAPA in DMF, up to 24 h",No significant degradation
same,increase of hydantoin impurity,"[2]; 10% DEAPA in DMF, up to 24 h",no increase
same,Hydantoin impurity (VI) at RRT 1.03,"[2]; Test 1, about 170 g/L in DMF with 10% DEAPA",0.10%
same,purity (HPLC),"[2]; Test 1, about 170 g/L in DMF with 10% DEAPA, t0",99.17%
same,purity (HPLC),[2]; [8],99.10%
same,"specified impurity RRT 0.85 (X, unknown)",[2]; [8],0.06%
same,Hydantoin impurity (VI) at RRT 1.03,"[2]; Test 2, about 17 g/L in DMF with 10% DEAPA",0.09%
same,purity (HPLC),"[2]; Test 2, about 17 g/L in DMF with 10% DEAPA, t0",99.18%
same,purity (HPLC),[2]; [9],99.10%
same,"specified impurity RRT 0.85 (X, unknown)",[2]; [9],0.04%
same,Degarelix %,[3]; [10],99.97%
same,Hydantoin VI %,[3]; [10],0.03%
same,Degarelix %,[3]; [11],99.96%
same,Hydantoin VI %,[3]; [11],0.04%
same,Degarelix %,[3]; [12],98.7%
same,Hydantoin VI %,[3]; [12],1.3%
same,Degarelix %,[3]; [13],99.96%
same,Hydantoin VI %,[3]; [13],0.04%
same,amount of hydantoin impurity (VI),[3]; after 24-hours treatment with DEAPA (10% in DMF),unchanged
same,Degarelix %,[3]; [14],99.97%
same,Hydantoin VI %,[3]; [14],0.03%
C1CCNCC1 [piperidine],LD50,[4],30 mg/kg
same,LD50,[5],400 mg/kg
same,LD50,[6],145 mg/kg
H-Ala-Lys-Asp-Gly-Tyr-Ile-OH (H-AKDGYI-OH) [III],Aspartimide (IV) (A %),"[7]; 5% TMG in DMF, 4 h at RT, resin-bound",85.5 A %
same,III (A %),"[7]; 5% TMG in DMF, 4 h at RT, resin-bound, sum of alpha- and beta-peptide",14.5^a A %
same,Δ Asp (A %),"[7]; 5% TMG in DMF, 4 h at RT, relative to initial 2.6%",82.9 A %
same,Aspartimide (IV) (A %),"[7]; 5% TMG in NBP, 4 h at RT, resin-bound",72.9 A %
same,III (A %),"[7]; 5% TMG in NBP, 4 h at RT, resin-bound, sum of alpha- and beta-peptide",27.1^a A %
same,Δ Asp (A %),"[7]; 5% TMG in NBP, 4 h at RT, relative to initial 2.6%",70.3 A %
same,Aspartimide (IV) (A %),[7]; [15],10.1 A %
same,III (A %),[7]; [15],89.9 A %
same,Δ Asp (A %),"[7]; 10% DEAPA in DMF, 4 h at RT, relative to initial 2.6%",7.5 A %
same,Aspartimide (IV) (A %),[7]; [16],4.2 A %
same,III (A %),[7]; [16],95.8 A %
same,Δ Asp (A %),"[7]; 10% DEAPA in NBP, 4 h at RT, relative to initial 2.6%",1.6 A %
same,Aspartimide (IV) (A %),[7]; [17],29.3 A %
same,III (A %),[7]; [17],70.7 A %
same,Δ Asp (A %),"[7]; 20% TBA in DMF, 4 h at RT, relative to initial 2.6%",26.7 A %
same,Aspartimide (IV) (A %),[7]; [18],20.0 A %
same,III (A %),[7]; [18],80.0 A %
same,Δ Asp (A %),"[7]; 20% TBA in NBP, 4 h at RT, relative to initial 2.6%",17.4 A %
same,Aspartimide (IV) (A %),[7]; [19],7.2 A %
same,III (A %),[7]; [19],86.5 A %
same,Piperidides (V) (A %),[7]; [19],6.3 A %
same,Δ Asp (A %),"[7]; 20% piperidine in DMF, 4 h at RT, additional aspartimide impurities incl. piperidides relative to initial 2.6%",10.9 A %
same,Aspartimide (IV) (A %),[7]; [20],7.1 A %
same,III (A %),[7]; [20],90.0 A %
same,Piperidides (V) (A %),[7]; [20],2.9 A %
same,Δ Asp (A %),"[7]; 20% piperidine in NBP, 4 h at RT, incl. piperidides, relative to initial 2.6%",7.4 A %
same,Aspartimide (IV) (A %),[7]; [21],2.6 A %
same,III (A %),[7]; [21],97.4 A %
